The source of these data is article PMC2718698, “The TCL1A Oncoprotein Interacts Directly with the NF-κB Inhibitor IκB” (PLoS ONE, 2009).

Experiment [1] deals with all-cysteine-to-serine (7CS) mutant of the IκBα ankyrin domain, IκB(67–302)7CS (human) (UniProt P25963). The experiment in a line: ITC; TCL1A (470 µM) injected into IκB_ank^7CS (45 µM) in the cell; 20°C; 10 mM Tris pH 7.4, 300 mM NaCl, 1 mM β-mercapto ethanol. On the technique in general: Isothermal titration calorimetry measures the heat released or taken up as one component is titrated into another.

The target of experiment [2] is T1, T cell leukaemia/lymphoma 1A (TCL1A), purified recombinant human protein (human, UniProt P56279 1-114).
T1 construct: TCL1A, human; 7 N-terminal residues are not seen in the crystal structure 1JSG
The experiment in a line: ITC; AKT_PH (490 µM) injected into TCL1A (40 µM) or into equimolar TCL1A and IκB_ank^7CS in the cell; 20°C; 20 mM sodium phosphate pH 7.1, 300 mM NaCl, 2 mM EGTA, 1 mM β-mercapto ethanol. Conditions: both partners purified.

Experiment [3] concerns the target 1:1 TCL1A:IκB_ank^7CS complex (human) (UniProt P56279). The description is as above.

T1 sequence (P56279 whole entry): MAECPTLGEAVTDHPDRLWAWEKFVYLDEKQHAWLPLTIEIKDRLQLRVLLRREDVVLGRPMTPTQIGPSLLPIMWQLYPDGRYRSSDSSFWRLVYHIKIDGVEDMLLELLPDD

In experiment [1], “T cell leukaemia/lymphoma 1A (TCL1A), purified recombinant human protein (from UniProt P56279 1-114) (natural protein)” gave a dH of -12.7 kcal/mol and a stoichiometry N of 0.9.

B1: AKTβ PH domain, human AKTβ PH(1–118) (domain or fragment, UniProt P31751 1-118, looked up)
chain: MNEVSVIKEGWLHKRGEYIKTWRPRYFLLKSDGSFIGYKERPEAPDQTLPPLNNFSVAECQLMKTERPRPNTFVIRCLQWTTVIERTFHVDSPDEREEWMRAIQMVANSLKQRAPGED
On to B1, for which, in experiment [2], the dH was -14.6 ± 0.598 kcal/mol and the “stoichiometry N” value is 0.7 ± 0.3. In experiment [3], this molecule came in with a Kd of 5.1 µM, a dH of -9.32 kcal/mol and a stoichiometry N of 0.7.

Usually stoichiometry N stands for the number of molecules, sites or subunits per partner or assembly. The term Kd denotes the free concentration of one partner at which half of the binding sites on the other are occupied at equilibrium, for simple one-to-one binding. High values mean a looser complex, low ones a tighter complex.
